Measurements reported in publication PMC6264893.

Legend:
[1] = molecular target: ProTα labeled at positions 56 and 110 (FRET-labeled prothymosin α) (human) (UniProt P06454); assay: stopped-flow FRET kinetics
[2] = molecular target: prothymosin α (unlabeled, wildtype) (human) (UniProt P06454); assay: NMR titration
[3] = molecular target: ProTα labeled at positions 56 and 110 (FRET-labeled prothymosin α) (human) (UniProt P06454); assay: FRET or BRET

Chain of linker histone H1.0 (P07305 whole entry): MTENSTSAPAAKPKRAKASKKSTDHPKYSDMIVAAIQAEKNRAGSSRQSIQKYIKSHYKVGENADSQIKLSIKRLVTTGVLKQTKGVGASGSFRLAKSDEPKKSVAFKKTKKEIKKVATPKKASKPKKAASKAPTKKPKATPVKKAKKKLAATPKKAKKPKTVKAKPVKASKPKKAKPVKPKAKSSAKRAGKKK

Row | Substance | koff [1] | stoichiometry N [2] | Kd [3]
1 | linker histone H1.0 (from UniProt P07305 1-194) (natural protein) | 0.0065 s⁻¹ | – | –
2 | globular domain of H1 (domain or fragment) | – | > 4 | 1.9 µM
